Assays:
Type in all cases: biochemical
[1] = pH optimum of heterologously produced endoglucanases; conditions: McIlvaine's buffer; for pH optimum: pH range 4.0-8.0, CMC, 10 min, 50° C.
Description: (§1) The pH optimum of the heterologously produced endoglucanases was determined in the universal McIlvaine's buffer within a pH range of 4.0-8.0 using carboxymethylcellulose as substrate. As shown in FIG. 6 A the broadest pH range (4.5-6.0) is that of the Acremonium EG—40/Cel45A protein, the optimum being at pH 5.5. The pH optima for the other heterologously produced endoglucanases are pH 5.0-5.5 and 6.0 for Acremonium EG—40_like/Cel45B and Thermoascus EG—28/Cel5A, respectively. The optimal temperature for enzymatic activity of these endoglucanases was determined at the temperature range of 50-85° C. as described above. The highest activity of the enzymes was determined to be at 75° C., 60° C., and 75° C. for the Acremonium EG—40/Cel45A, EG—40 like/Cel45B, and Thermoascus EG—28/Cel5A, respectively (FIG. 6 B).

[2] = Hydrolysis with endoglucanase preparations, corn stover; conditions: 48 h, 45° C., pH 5.0
Description: (§2) The preparations containing the endoglucanases were compared in hydrolysis studies mixed with the purified CBH/Cel7 and CBH/Cel6 enzymes on several pre-treated substrates. Culture filtrates of T. reesei, containing different cloned endoglucanase enzymes were obtained as described in Example 19. The enzymes were enriched by removing thermolabile proteins from the mixtures by a heat treatment (60° C., 2 h, pH 5) and the supernatant was used for the hydrolysis studies. In addition, pure T. reesei cellulases (purified as described by Suurnäkki et al., 2000) were used in the enzyme mixtures. The endoglucanases used in the experiment were:
Steam exploded corn stover fibre (steam pre-treatment at 210° C. for 5 min), dry matter 31.0% (SECS).
(§3) The endoglucanases to be studied (dosage 840 nkat/g dry matter, based on endoglucanase activity against HEC according to IUPAC, 1987) were used either with cellobiohydrolases of T. reesei (CBHI/Cel7A, 8.1 mg/g d.m. and CBHII/Cel6A, 2.0 mg/g d.m.) or with Thermoascus aurantiacus Cel7A with genetically attached CBD of T. reesei (10.1 mg/g d.m.). Purified (Suurnäkki et al., 2000) EGI (Cel7B) and EGII (Cel5A) of T. reesei were also included in the experiments for comparison. All mixtures were supplemented with additional β-glucosidase from Novozym 188 (to make the total β-glucosidase dosage 560 nkat/g d.w., the relatively high dosage was used to compensate the differences in the background activities of the different EG preparations). Triplicate tubes were incubated in mixing at 45° C. for 48 h and reference samples with inactivated enzymes and corresponding substrates were prepared. The release of hydrolysis products was measured as reducing sugars with DNS method using glucose as standard (Table 31).

[3] = Hydrolysis with endoglucanase preparations, spruce; conditions: 48 h, 45° C., pH 5.0
Description: as §2
Washed steam pre-treated spruce fibre (impregnation with 3% SO2 for 20 min, followed by steam pre-treatment at 215° C. for 5 min), dry matter 25.9% (SPRUCE).
as §3

[4] = Temperature optimum of heterologously produced endoglucanases; conditions: temperature range 50-85° C., CMC
Description: as §1

[5] = Temperature optimum of heterologously produced β-glucosidases; conditions: temperature range 50-85° C., 60 min
Description: (§4) The pH optimum of the heterologously produced β-glucosidases was determined in the universal McIlvaine's buffer within a pH range of 3.0-8.0 using 4-nitrophenyl-β-D-glucopyranoside as substrate. The pH optima for the Acremonium βG—101, Chaetomium βG—76, and Thermoascus βG—81 are pH 4.5, 5.5, and 4.5, respectively (FIG. 7 A). The optimal temperature for enzymatic activity of these β-glucosidases was determined at the temperature range of 50-85° C. as described above. The highest activity of the enzymes was determined to be at 70° C., 65° C., and 75° C. for the Acremonium βG—101/Cel3A, Chaetomium βG—76/Cel3A, and Thermoascus βG—81/Cel3A, respectively (FIG. 7 B).

[6] = pH optimum of heterologously produced β-glucosidases; conditions: McIlvaine's buffer, pH range 3.0-8.0, 4-nitrophenyl-β-D-glucopyranoside
Description: as §4

[7] = Endoglucanase activity on carboxymethyl cellulose; conditions: purified endoglucanase, 50° C., procedure of IUPAC 1987
Description: The specific activity of the preparations was determined using 4-methylumbelliferyl-β-D-lactoside (MUL), 4-methylumbelliferyl-β-D-cellobioside (MUG2) or 4-methylumbelliferyl-β-D-cellotrioside (MUG3) as substrate (van Tilbeurgh et al., 1988) in 0.05 M sodium citrate buffer pH 5 at 50° C. for 10 min. Endoglucanase and xylanase activities were determined by standard procedures (according to IUPAC, 1987) using carboxymethyl cellulose (CMC) and birch glucuronoxylan (Bailey et al., 1992) as substrates. Specific activity against Avicel was calculated on the basis of reducing sugars formed in a 24 h reaction at 50° C., pH 5.0, with 1% substrate and 0.25 μM enzyme dosage. The protein content of the purified enzyme preparations was measured according to Lowry et al., 1951. To characterize the end products of hydrolysis, soluble sugars liberated in 24 h hydrolysis experiment, as described above, were analysed by HPLC (Dionex). Purified cellobiohydrolase I (CBHI/Cel7A) of Trichoderma reesei was used as a reference.
Acremonium thermophilum ALKO4245 was grown as described in Example 1. The culture supernatant was incubated at 70° C. for 24 hours after which it was concentrated by ultrafiltration. The pure endoglucanase was obtained by sequential purification with hydrophobic interaction and cation exchange chromatography followed by gel filtration. The endoglucanase activity of the fractions collected during purification was determined using carboxymethyl cellulose (CMC) as substrate (procedure of IUPAC 1987). Protein content was measured by BioRad Assay Kit (Bio-Rad Laboratories) using bovine serum albumine as standard.
Thermoascus aurantiacus ALKO4242 was grown as described in Example 1. The pure endoglucanase was obtained by sequential purification with hydrophobic interaction and anion exchange chromatography followed by gel filtration. The endoglucanase activity of the fractions collected during purification was determined using carboxymethyl cellulose (CMC) as substrate (procedure of IUPAC 1987). Protein content was measured by BioRad Assay Kit (Bio-Rad Laboratories) using bovine serum albumine as standard.

[8] = with CBHI and CBHII of T. reesei
[9] = with T. aurantiacus Cel7A + Tr CBD

B1: At EG_40_like: endoglucanase of Acremonium thermophilum ALKO4245, gene At cel45B, amino acid SEQ ID NO: 14 (protein)
chain: MRLPLPTLLALLPYYLEVSAQGASGTGTTTRYWDCCKPSCAWPLKGNSPSPVQTCDKNDRPLNDGGNTKSGCDNGGGAFMCSSQSPWAVNETTSYGWAAVRIAGSTESAWCCACYELTFTSGPVSGKKLIVQATNTGGDLGSNHFDLAIPGGGVGQSNACTNQYGAPPNGWGDRYGGVHSRSDCDSFPAALKAGCYWRFDWFQGADNPSVSFKQVACPAAITAKSGCTRQNDAINETPTGPSTVPTYTASG
pH optimum [1]: 5.0-5.5
Hydrolysis products as reducing sugars, SECS [2, 8]: 4.8 mg/mL
Hydrolysis products as reducing sugars, SPRUCE [3, 8]: 4.5 mg/mL
Temperature of highest activity [4]: 60 °C

B2: Ct βG_76: beta-glucosidase of Chaetomium thermophilum ALKO4261, gene Ct cel3A, amino acid SEQ ID NO: 26 (protein)
chain: MALHAFLLLASALLARGALSQPDNVRRAAPTGTAAWDAAHSQAAAAVSRLSQQDKINIVTGVGWGKGPCVGNTNPVYSINYPQLCLQDGPLGIRSATSVTAFTPGIQAASTWDVELIRQRGVYLGQEARGTGVHVLLGPVAGALGKIPHGGRNWEAFGSDPYLAGIAMSETIEGIQSEGVQACAKHYIANEQELNRETMSSNVDDRTMHELYLWPFADAVHSNVASVMCSYNKLNGTWLCENDRAQNQLLKRELGFRGYIVSDWNAQHTTVGSANSGMDMTMPGSDFNGWNVLWGPQLNNAVNSGQVSQSRLNDMVQRILAAWYLLGQNSGYPSINLRANVQANHKENVRAVARDGIVLLKNDGILPLQRPNKIALVGSAAVVNPRGMNACVDRGCNEGALGMGWGSGTVEYPYFVAPYDALRERAQRDGTQISLHASDNTNGVNNAVQGADAAFVFITADSGEGYITVEGHAGDRNHLDPWHNGNQLVQAVAQANKNVIVVVHSVGPVILETILNTPGVRAVVWAGLPSQESGNALVDVLYGLVSPSGKLVYTIAKSPSDYPTSIVRGDDNFREGLFIDYRHFDNARIEPRFEFGFGLSYTNFSYSNLGISSSATAGPATGPTVPGGPADLWNYVATVTATVTNTGGVEGAEVAQLYISLPSSAPASPPKQLRGFVKLKLAPGQSGTATFRLRKRDLAYWDVGRQNWVVPSGRFGVLVGASSRDIRLQGEIVV
Temperature of highest activity [5]: 65 °C
pH optimum [6]: 5.5

B3: At EG_40: endoglucanase of Acremonium thermophilum ALKO4245, gene At cel45A, amino acid SEQ ID NO: 12 (protein)
chain: MRSSPFLRAALAAALPLSAHALDGKSTRYWDCCKPSCGWPGKASVNQPVFSCSADWQRISDFNAKSGCDGGSAYSCADQTPWAVNDNFSYGFAATAIAGGSESSWCCACYALTFNSGPVAGKTMVVQSTSTGGDLGSNQFDLAIPGGGVGIFNGCASQFGGLPGAQYGGISDRSQCSSFPAPLQPGCQWRFDWFQNADNPTFTFQRVQCPSELTSRTGCKRDDDASYPVFNPPSGGSPSTTSTTTSSPSGPTGNPPGGGGCTAQKWAQCGGTGFTGCTTCVSGTTCQVQNQWYSQCL
pH range (broadest) ([1]; CMC): 4.5-6.0
pH optimum [1]: 5.5
Hydrolysis products as reducing sugars, SECS [2, 8]: 4.3 mg/mL
Hydrolysis products as reducing sugars, SECS [2, 9]: 4.0 mg/mL
Specific activity on CMC [7]: 450 nkat/mg
Hydrolysis products as reducing sugars, SPRUCE [3, 8]: 4.9 mg/mL
Hydrolysis products as reducing sugars, SPRUCE [3, 9]: 4.8 mg/mL
Temperature of highest activity [4]: 75 °C

Reference: patent US8409836B2, “Treatment of cellulosic material and enzymes useful therein” (Roal Oy, priority 2005, dated 2013)
